One block for each binder: values may come before it.
Assays:
[1] = target: T1, his-tagged human CDH6 extracellular region protein (hCDH6 ECD-his) (human, UniProt P55285 19-615); test: SPR Biacore, antibody captured on Protein A
T1 construct: also called Human CDH6-his; hCDH6-his; not shown: his tag
T1 sequence: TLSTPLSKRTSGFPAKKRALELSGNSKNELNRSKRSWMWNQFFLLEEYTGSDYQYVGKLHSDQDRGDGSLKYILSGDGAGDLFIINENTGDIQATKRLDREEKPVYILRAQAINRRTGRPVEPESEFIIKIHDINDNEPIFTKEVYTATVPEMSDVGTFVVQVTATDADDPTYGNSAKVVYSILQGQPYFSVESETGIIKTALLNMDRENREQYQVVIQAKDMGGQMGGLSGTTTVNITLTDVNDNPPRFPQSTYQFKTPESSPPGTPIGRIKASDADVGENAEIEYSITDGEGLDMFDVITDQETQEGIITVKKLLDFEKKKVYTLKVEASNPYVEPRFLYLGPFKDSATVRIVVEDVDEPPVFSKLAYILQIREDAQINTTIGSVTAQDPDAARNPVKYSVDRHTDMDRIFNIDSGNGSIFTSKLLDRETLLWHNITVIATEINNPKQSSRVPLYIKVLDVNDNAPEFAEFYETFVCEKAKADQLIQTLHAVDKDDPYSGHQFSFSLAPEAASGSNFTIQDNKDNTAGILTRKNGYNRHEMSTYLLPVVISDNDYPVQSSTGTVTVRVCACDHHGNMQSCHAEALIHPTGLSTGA
Description: The affinity of the antibody for the antigen was determined by a multi-cycle kinetic method using a BIAcore 8K instrument. In each cycle, the antibody to be tested was captured using a Protein A chip (purchased from GE, Cat. No. 29-1275-56), and then the antigen human CDH6 protein (hCDH6-his, conventionally synthesized) was injected. The association and dissociation processes of the antibody with the antigen protein were recorded, and finally, the chip was regenerated using Glycine pH 1.5, wherein the mobile phase was HBS-EP+ (10 mM HEPES, 150 mM NaCl, 3 mM EDTA, 0.05% surfactant P20, and 1 mM Ca), the flow rate was 30 μL/min, the association time was 240 s, the dissociation time was 300 s, the regeneration time was 30 s, the detection temperature was 25° C., and the antigen concentration was 31.25-1000 nM. The data were analyzed using Biacore 8K analysis software (version No. 2.0) based on the 1:1 binding model to fit the antibody-antigen binding kinetic parameters, including the association rate constant ka, the dissociation rate constant kd, and the equilibrium dissociation constant KD. The affinity values of the control antibody DS-H01L02 were undetectable. Antibodies not shown in the table had undetectable affinity values.
Four hCDH6-6 humanized antibodies with fewer back mutations were selected, and the affinity for human CDH6 protein was further confirmed using Biacore.

[2] = target: T2, human CDH6 on tumor cells (OVCAR3 cells, PA-1 cells) (human, UniProt P55285 54-790); test: FACS, OVCAR3 cells
T2 sequence: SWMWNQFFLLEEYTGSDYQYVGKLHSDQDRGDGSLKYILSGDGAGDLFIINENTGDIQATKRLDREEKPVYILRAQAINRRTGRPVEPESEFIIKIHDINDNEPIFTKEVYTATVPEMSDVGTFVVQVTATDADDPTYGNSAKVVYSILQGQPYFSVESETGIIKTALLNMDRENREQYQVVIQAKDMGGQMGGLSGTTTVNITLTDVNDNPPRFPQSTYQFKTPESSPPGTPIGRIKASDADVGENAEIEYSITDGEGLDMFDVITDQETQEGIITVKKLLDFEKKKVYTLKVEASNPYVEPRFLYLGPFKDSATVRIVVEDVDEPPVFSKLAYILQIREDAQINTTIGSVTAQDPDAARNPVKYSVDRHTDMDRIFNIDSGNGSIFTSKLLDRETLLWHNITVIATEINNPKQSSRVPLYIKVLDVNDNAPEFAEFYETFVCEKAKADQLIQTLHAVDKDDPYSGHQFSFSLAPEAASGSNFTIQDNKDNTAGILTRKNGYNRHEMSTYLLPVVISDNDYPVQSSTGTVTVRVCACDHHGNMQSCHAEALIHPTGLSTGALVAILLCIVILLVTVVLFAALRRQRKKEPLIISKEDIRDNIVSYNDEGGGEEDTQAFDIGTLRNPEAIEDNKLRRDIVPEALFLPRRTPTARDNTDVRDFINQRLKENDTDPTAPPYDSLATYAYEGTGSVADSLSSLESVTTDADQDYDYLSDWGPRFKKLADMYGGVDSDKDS
Description: OVCAR3 cells with high expression of CDH6 and PA-1 cells with moderate expression of CDH6 were used to detect the binding activity of the antibodies to the cells. […] The cells were washed once with PBS, counted, resuspended to 2×10⁶ cells/mL in an FACS buffer (PBS+2% FBS), and then added to a 96-well plate at 50 μL/well. The chimeric antibodies were diluted with FACS buffer (PBS+2% FBS) and added to the 96-well plate at 50 μL/well, and the plate was incubated at 4° C. for 1 h. […] The dilution was added to the 96-well plate at 50 μL/well, and the plate was incubated at 4° C. for 1 h. After the plates were centrifuged and washed 2 times with PBS, the cells were resuspended in an FACS buffer. The mean fluorescence intensity (MFI) was measured using FACS Canton II (BD). Analysis was performed by the GraphPad Prism software, data were fitted, and EC50 values were calculated. The chimeric antibodies tested had strong binding to both OVCAR3 cells and PA-1 cells.
According to the above sequences, heavy chain (HC) and light chain (LC) plasmids were constructed (the nucleic acid sequences encoding the VH and VL of the antibodies were recombined into an expression vector carrying a signal peptide (SEQ ID NO: 132, […]) and a heavy chain constant region/light chain constant region sequence to obtain recombinant plasmids expressing VH-CH1-Fc/VL-CL). According to the expression and purification methods in Example 2, the hCDH6-1 humanized antibodies were obtained, and the binding activity of the humanized antibodies was detected by ELISA and FACS (see 2.2 and 2.3 for the method).

Kd [1]: 87.1 nM | koff [1]: 0.00424 s⁻¹ | kon [1]: 48700 M⁻¹ s⁻¹
B1: CHI-CDH6-6 (antibody, human IgG1, kappa, V domains shown)
VH: EVQLQQSGPELVKPGDSVKMSCKASGYTFTDYYMAWVRQSHRKSLEWIGYIFPNSGGTDYSQKFKGKATLTVDKSSSTVYMELHSLTSEDSAVYYCARELGADYGDYYAMDHWGQGTSVSVSS
VL: DIQMTQSPASLSASVGETVTITCRASENIDSYLAWYQQKQGKSPQLLVYSATLLADGVPSRFSGSGSGTQYSLKINSLKSEDVARYYCQHYYRTPPTFGSGTKLEIKR
notes: also called CHI-hCDH6-6; chimeric antibody of murine CDH6-6

EC50 [2]: 0.194 nM | Max MFI [2]: 14900 MFI
B2: CHI-CDH6-1 (antibody, human IgG1, kappa, V domains shown)
VH: QVQLQQPGAELVRPGSSVKLSCKASGYTFTNYWMHWVKQRPIEGLEWIGDIDPSHSETHYTQKFKDKATLTVDKSSSTAYMQLSSLTSEDSAVYYCARGDLGRFDYWGQGTTLTVSS
VL: DIVLTQSPASLAVSLGQRATISCRASESVSIHGTHLMHWYQQKSGQPPKLLIYAASNLESGVPARFSGSGSETDFTFNIHPVEEEDAATYFCQQSFEDPWTFGGGTKLEIKR
notes: also called CHI-hCDH6-1; CH1-CDH6-1

Kd [1]: 89.8 nM | koff [1]: 0.00468 s⁻¹ | kon [1]: 52100 M⁻¹ s⁻¹
B3: hCDH6-6-H2L2 (antibody, V domains shown)
VH: EVQLVQSGAEVKKPGASVKVSCKASGYTFTDYYMAWVRQAPGQGLEWMGYIFPNSGGTDYSQKFKGRVTLTVDKSTSTVYMELSSLRSEDTAVYYCARELGADYGDYYAMDHWGQGTTVTVSS
VL: DIQMTQSPSSLSASVGDRVTITCRASENIDSYLAWYQQKPGKSPKLLVYSATLLADGVPSRFSGSGSGTDYTLTISSLQPEDFATYYCQHYYRTPPTFGQGTKLEIK
notes: Humanized

EC50 [2]: 0.17 nM | Max MFI [2]: 14800 MFI
B4: hCDH6-1-H2L3 (antibody, V domains shown)
VH: EVQLVQSGAEVKKPGSSVKVSCKASGYTFTNYWMHWVRQAPGQGLEWMGDIDPSHSETHYTQKFKDRVTITVDKSTSTAYMELSSLRSEDTAVYYCARGDLGRFDYWGQGTTVTVSS
VL: DIQMTQSPSSLSASVGDRVTITCRASESVSIHGTHLMHWYQQKPGKPPKLLIYAASNLESGVPSRFSGSGSETDFTFTISSLQPEDIATYYCQQSFEDPWTFGGGTKVEIK
notes: Humanized

— patent publication US20260234242A1 (HAINAN SIMCERE ZAIMING PHARMACEUTICAL, published 2026)
